Experimental findings from PMC3097263 are described below.

The data set has as its target MqsA (UniProt Q46864 1-131). Kind of data set: EMSA. (In general: Mobility shift assays separate free from complexed probe on a gel.)

MqsA, sequence (Q46864 whole entry): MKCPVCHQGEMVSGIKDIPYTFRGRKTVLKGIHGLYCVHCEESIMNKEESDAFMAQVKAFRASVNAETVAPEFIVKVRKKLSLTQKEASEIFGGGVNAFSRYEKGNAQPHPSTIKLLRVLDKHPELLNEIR

B1: PrpoS 25-mer (dsDNA)
DNA 1: TGGTCAGACCTTGCAGGTGGGTAAT
DNA 2: ATTACCCACCTGCAAGGTCTGACCA
With B1, the binding result is listed as “binds”.
